# Reference: patent US20190359719A1
# Target: c-Met (UniProt P08581)
# Test: Biacore SPR
# c-Met, sequence (P08581 25-932): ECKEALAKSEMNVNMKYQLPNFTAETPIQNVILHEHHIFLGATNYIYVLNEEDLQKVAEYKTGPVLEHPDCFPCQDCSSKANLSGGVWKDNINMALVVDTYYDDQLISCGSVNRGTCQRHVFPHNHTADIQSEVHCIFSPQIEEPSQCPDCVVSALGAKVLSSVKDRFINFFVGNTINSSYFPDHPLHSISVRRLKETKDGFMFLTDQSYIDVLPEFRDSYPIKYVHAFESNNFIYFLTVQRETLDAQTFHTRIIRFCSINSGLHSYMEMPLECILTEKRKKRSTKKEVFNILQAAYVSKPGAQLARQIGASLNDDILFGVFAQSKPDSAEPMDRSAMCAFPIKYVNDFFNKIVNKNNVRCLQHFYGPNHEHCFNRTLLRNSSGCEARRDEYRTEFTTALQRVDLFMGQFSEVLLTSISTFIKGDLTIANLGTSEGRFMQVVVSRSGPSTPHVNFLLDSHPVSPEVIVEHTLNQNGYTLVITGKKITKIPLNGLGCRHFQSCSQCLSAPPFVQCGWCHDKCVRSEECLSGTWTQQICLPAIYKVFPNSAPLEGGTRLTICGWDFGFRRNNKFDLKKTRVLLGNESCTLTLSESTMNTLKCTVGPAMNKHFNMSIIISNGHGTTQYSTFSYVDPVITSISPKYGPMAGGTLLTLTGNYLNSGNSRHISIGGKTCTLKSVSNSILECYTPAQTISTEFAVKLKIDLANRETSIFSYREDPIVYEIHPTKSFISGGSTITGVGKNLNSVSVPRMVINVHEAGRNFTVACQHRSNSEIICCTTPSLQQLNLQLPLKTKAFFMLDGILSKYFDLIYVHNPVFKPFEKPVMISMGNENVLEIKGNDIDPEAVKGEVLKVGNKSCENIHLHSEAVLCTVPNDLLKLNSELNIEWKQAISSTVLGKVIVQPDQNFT
substance,measurement,value
5D5,Ka,5.89e+09 M⁻¹
same,Kd,0.17 nM
